Assay: label from the status in PepcDB records
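Note: failed if final PepcDB status was selected cloned or expressed and not failed if soluble or beyond.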

Sequence | protein production
MLPARLPFRLLSLFLRGSAPTAARHGLREPLLERRCAAASSFQHSSSLGRELPYDPVDTEGFGEGGDMQERFLFPEYILDPEPQPTREKQLQELQQQQEEEERQRQQRREERRQQNLRARSREHPVVGHPDPALPPSGVNCSGCGAELHCQDAGVPGYLPREKFLRTAEADGGLARTVCQRCWLLSHHRRALRLQVSREQYLELVSAALRRPGPSLVLYMVDLLDLPDALLPDLPALVGPKQLIVLGNKVDLLPQDAPGYRQRLRERLWEDCARAGLLLAPGHQGPQRPVKDEPQDGENPNPPNWSRTVVRDVRLISAKTGYGVEELISALQRSWRYRGDVYLVGATNAGKSTLFNTLLESDYCTAKGSEAIDRATISPWPGTTLNLLKFPICNPTPYRMFKRHQRLKKDSTQAEEDLSEQEQNQLNVLKKHGYVVGRVGRTFLYSEEQKDNIPFEFDADSLAFDMENDPVMGTHKSTKQVELTAQDVKDAHWFYDTPGITKENCILNLLTEKEVNIVLPTQSIVPRTFVLKPGMVLFLGAIGRIDFLQGNQSAWFTVVASNILPVHITSLDRADALYQKHAGHTLLQIPMGGKERMAGFPPLVAEDIMLKEGLGASEAVADIKFSSAGWVSVTPNFKDRLHLRGYTPEGTVLTVRPPLLPYIVNIKGQRIKKSVAYKTKKPPSLMYNVRKKKGKINV | failed
MADTVEEPQLQNGAAPAESETEQNPIPEPQLQTEPKLTGEIPEIEADLTPEEVQSEVTDAKPEEVQSEVKPEEVKTVVTDAKPEEAQSEVKPEEVQSVVTDTKPDLTDVDLSPGGSEEIPIRSTEVEQESTTSVLKKDDDGNKTFTMRELLSELKSEEGDGTPHSSASPFSRESASQPAENNPAMDLINRIQVNDEEGRSRQRVLAFAARKYASAIERNPDDHDALYNWALILQESADNVSPDSVSPSKDDLLEEACKKYDEATRLCPTLYDAYYNWAIAISDRAKIRGRTKEAEELWEQAADNYEKAVQLNWNSSQALNNWGLVLQELSQIVPAREKEKVVRTAISKFRAAIRLQFDFHRAIYNLGTVLYGLAEDTLRTGGSGNGKDMPPGELYSQSAIYIAAAHSLKPSYSVYSSALRLVRSMLPLPHLKVGYLTAPPVGNSLAPHSDWKRTEFELNHERLLQVLKPEPREMGRNLSGKAETMSTNVERKTVKVNITEIVSVTPCADLTLPPGAGLCIDTIHGPVFLVADSWESLDGWLDAIRLVYTIYARGKSDVLAGIITG | failed
MTRQLLIVPIVKLKNLLTGRWLRYAFLSVAGNALIWGTSIQYLKVTKPTYTSEFALILSGASFGVNVNLPGIGQATSSSSSAIGSSTYDARANYEYIFTSEAVLKKAAAIAKIPEEQFSKPRIKLLDNSTIMQFEVTGKSPKEAQNKSLALYQAMVHQITVLRTGEINQRKDPTQKTLLSSQQKLERAQKHLSEYKLRSGLSFPDQIGNLSSNIEQLRRQRAEAKAQENATNQKLQQLAKNIGLSPQEAADAFLLRVDQIFQQNLKDYSEATTTLEILMTKYGPNHPQVVKERIRQEAALAALLERSQILLEKPMTTTILNRLALAVNGSGRDTLFQNLVTYQSDQKGLQSQVKTLDSEIQRLEKRLEILSQRQSKLENLKRDVQIAEAMFASTLTKLDLGQGDIFAAYPLVQMLVEPNLPDQPTAPKKSFILAGSAAGSIFSTLGLCLVWIRKPWIEKLSKWLS | failed
GSSGSSGMTPLVKDIIMSSTRMPALFLGHGSPMNVLEDNLYTRSWQKLGMTLPRPQAIVVVSAHWFTRGTGVTAMETPPTIHDFGGFPQALYDTHYPAPGSPALAQRLVELLAPIPVTLDKEAWGFDHGSWGVLIKMYPDADIPMVQLSIDSSKPAAWHFEMGRKLAALRDEGIMLVASGNVVHNLRTVKWHGDSSPYPWATSFNEYVKANLTWQGPVEQHPLVNYLDHEGGTLSNPTPEHYLPLLYVLGAWDGQEPITIPVEGIEMGSLSMLSVQIG | not failed
DDDLEVKEENGVWVLNDGNFDNFVADKDTVLLEFYAPWCGHCKQFAPEYEKIASTLKDNDPPIAVAKIDATSASMLASKFDVSGYPTIKILKKGQAVDYDGSRTQEEIVAKVREVSQPDWTPPPEVT | not failed
STGESSSVSERGSLKQQLREYIRWEEAARNLLGLIEAKENRNHQPPQPKALGNQQPSWDSEDSSNFKD | failed
CTFKSVADEWVKTKTKLKPKTVQGNWRKLELYAFPKFGEIPVKSLTPIIVQEAFRPIARRGKLETVKRTIQLVNEIMRFAINSGLIQHNVLSGVG | failed
MPSLTTLRSRELGPETFIPYVRHVDESTIALDSRALMVMIALEGVSFETADILDLNALHRDLNTLYRNIADERLALWTHLIRRRDNSYPEGTFATPFSAALNDKYRERMVGEDLFRNDLYLSILWSPARDPADKAAKLLSRLRRARRVGTELDEGALKHLRDKVIDVTAALRRFEPRVLTLYEHDGLMFSEPSEVLHQLVGGRREPIPLTEGHIASAIYSDRVIVGRETIEIRHEADSRYAGMLSFKEYPARTRTGMLDAVLTSPFELILAQSFSFVSKADARMIMGRKQNQMVSSGDKAASQIEELDGAMDDLESNRFVFGEHHLTLSVFAPSVKELTDNLAKARASMTSGGAVVAREDLGLEAAWWAQLPGNFRYRARSGAITSRNFAALSPFHSYPLGQKDGNEWGPAVALLKTASGSPYYFNFHYGDLGNTFVCGPSGAGKTVLLNFMLSQLEKHDPHVVFFDKDRGADLYVRAAGGTYLPLKNGIPTGCTPLKALELTPENKVFLTRWVGKLVGSATRELSVTELRDISSAIDGLADLPVERRTIGALRTFLDNTNPEGIAARLRRWERGGPLGWVFDNVIEDIGFGEFGGGKLVGYDMTDFLDNEEIRAPLMAYLFHRVEQLIDGRRIIIVIDEFWKALQDEGFRDLAQNKLKTIRKQNGLMLFATQSPRDAIVSPIAHTIIEQCPTQIFLPNSRGNHGDYVDGFKLTEREFELVARELSIESRRFVLKQGHNSVVAELDLKGLDDELAILSGRTANVELADAIRAEVGSNAKDWLPVFQQRRSATLEHHHHHH | failed
MDVQIHPMIIELAAFQAAKCGSVVGFGMVPSRNPSIKAASFFGIMVVTRSHVGESKDKGKEVEIAEPIESLILWLEELVAKQNKAMMRPMSDMMGAISRSTSHKLHDEQSTRDWSLPRSSTSTDDRSGHPVYRRKNRYDQVRYDAHQHYGNLTRLGKIDISRLDGIGIKEWLFKVEEFFGVDFTLQI | failed
MTDNETPAEDQVGDRVAGLLLAAGGGRRLGGRPKALLEHRGHPLVEHAVEVLRTAGCARVHVVLGARAADVRARAALDGCTLVDNPDWEQGMGSSLRAGLGSLAATGARAALVCLVDQPGIGAAATARVRARFRDETSLASAAYAGVRGHPVLLGAAHWAGVAATASGDRGARAYLREHEAEIALVECGDVARPYDIDTEADLVHLELEHHHHHH | not failed
MNNIRQLTKDEYPKAIELSWQVFTITGKEDFNNEGLEFFKSFIYNKKCINEIIFYGSFDNEALTGILGIKSNGKHISLFFIKPEYHRHGLGKKLFHYASTLHPSIETTVNSSTYAIPFYRSLGFAVVGEKQNYHGLCSTPMRRYHAVFVQKNKYTLRTWQTEDAHSLVQELNNKKIWDNCRNVFPHPYRLEHAETFIDLIQKKEGIHDFCIEVNGKAVGNIGFTPGTDVECFNAEVGYVIGEKYWNQGIVTDALQEAIYHYFTYTNTIRIFALVFEHNLPSMRVLEKAGFNKVGIMTKSIFKNGHFTNAHLFELLKNVLEHHHHHH | failed
MLMNNRVNNMMRTYKFRIYISKSIQETIEEHLNICRYLYNYLLEQKTKNPKLNKGDTQKLITEHKKENPELKKVHSKALQMVNNKLWGNLKALGKLKQNGHKVGKLRFKSSKNHYKTIEYNQSGFKIKDNKLYLSKIGEISIKLHRKIKGEIKGVIIKKELTNKWFAFFQVEEEPKPLPKTNKVVGIDLGIDGYTIDSDGNKFENPKFIDETLDKIKKVQKNLSRKVRGSNNYKKTKLKLIKVYDKLNNQKNDFLHKLSRYYINNYDKIVLEDLNIKSMVENKKGQKTLNRHILDGSWKKFINLLLYKAEGAGREVILINPAYTSKKCFNCGCVVSSLRLSDRIFFCPNCGWKIDRDYNASLNILKSGLGESVVPAEGRPLLRVIPYIKVISGQVSPMNQEALPEGRGLRKPKGFRSTPSVREG | failed

Reference: a protein production outcome set (Wang et al. 2014)
